From the domain aggregation screens of Martell et al. (2025) come the findings set out here.
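Further: 20 min heating vs room temperature control held 20 min.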

The series in a line: soluble fraction after stress (log2 fold change); higher = more stays soluble; pooled small domains, quantitative proteomics. The following applies: stress: 75 degC.
Consider “HMPLLSPRQLDVLSLAAGGLSDAQIAGRLVLSESTVRVHFHHIIEKLGVTDRAGAIAWYEQSRS”, for which the “soluble fraction (log2)” value is -2.05.
The value for “HMPLNAFDVAGYRLGYGGGYFDRTLAALSPRPLAVGVGFEINRLESIRPEAHDQRLDWIVTENGAFRPA” was -1.58; that for “HMPLNAHIVGRGKRDRRGKRGAPYSIVLELGRDENGKRIQKWYSGYPTKAAAEEDKIRMLRELQTGEYVPQ” was -0.889.
In the case of “HMPLPFSPVMFVGTKSGAQTDLDGNYKIETYYSSDSLKVVVLGYAPLAKKVKQGTTSVVNFELSAAS”, the “soluble fraction (log2)” value amounted to 0.161.
To “HMPLPLYVQIKESLRGQIFDGTYGEHERLPSENDLMSSFGVSRITVRQALSDLEKEELIFKVPGKGAFVSR” belongs -1.5.
The value for “HMPLQKNRPKIKPQKVVFLFSVEWMWSPAHNRIDSYFINIKPSRYYLWNSFFDRHSFSDYWDFIGYTEN” was 0.1; that for “HMPLSDAEKAAAIATQAKERALKLSPEMISYLLRHASRDMRTLSMLVVALDQYTLEQKRPVTLPLLRELLS” was -0.0668.
For “HMPMIQHFHRMISAALGISEKQIVQTLGLLNDGATIPFISRYRKEVTGGLDEVQIESIKTHYEKLNEIAK”, the “soluble fraction (log2)” value is -2.33.
The value for “HMPMPQDEVSYALGLSIGQNFKASGIKAITSEDFIAGLQDALAEREPQMTTERAREVINQLFMRLQQEESE” was 0.323; that for “HMPMTDYQLIRSNRRTIALQITRDARVVVRAPLYASEADIRRFVESHRAWIESHLDRQRARTD” was -3.25.
The value for “HMPMTRILFLPDDRTILQFDSAEPAEDLVSAVNAGRWLPPEPYRSGFGLGLPENRLRASRQGALVVVMLS” was -0.984; that for “HMPNDYRKKLEILAKEKGAEYLHTMLTEVDPKSALQIHTNNIKRTIRALEFYHQTGMKISEHNEAEREK” was -0.204; that for “HMPNIHVVFAEEWTDRRLDKVLSEYFDGYSRSFIKKLFDDGLILVNSKAVKPSYKVRAGDMIDISVPDPV” was -1.83.
On to “HMPNPALESARPAFEAFLSRFSDGEAMRGPAWGLWSLLHRKGNAPTASHAAGRDGMGVLAFLRHWQWG”, for which the “soluble fraction (log2)” value was -0.452.
The value for “HMPPDLSEAIQKRIEGKTDEALEILRKLYNEYPESTEIITMLGRTLLDAEEYALAAFRLEQALDLGG” was -0.699; that for “HMPPDVIENIFKNDANKIIDLYNMAPRGQKETIVEMIKNKRLQGINVDANVLVKLGELTGIDFVN” was -0.087.
To “HMPPLVLRGVVMGADGARLAILAQGEAGAALGIGETWKEYTLRSVTDQSATLEHRSGTITLTR” belongs -0.701; to “HMPPNPELGKKLLKLRKEFKMTQDDVANILGMSRTSFSKYENGIANPPLQVMRKLASIYNVGLEYLI”, -1.84; to “HMPQEMIEILATPNGWLRVRQGPGTNYPEITKVNSGEEFPLLEEKDSWFKIRIEEGQEGWISSQYAQKEE”, 0.00978.
To “HMPQGFEDLTEREREVLTLIAEGRTNQEIADALVISIKTVNRHRENIMAKLNLHSRVELVRYAIAQGLI” belongs -2.61.
Turning to “HMPQNLQDQLFELILSRYPRRADAVEDLANILHLGKDPVYRRLRGDTFLSPLEISTLALHFRISLDALIV”, the “soluble fraction (log2)” value was -2.5.
To “HMPQPEIEIAAVVPYSAGALLSRIHDDGELLAPVEYRGEGVFVHARVPADIEAAMRRGGMLSPAET” belongs 0.0386.
In the case of “HMPQQVFKREDLQKWGLTGQADSRKRREKLGQLLGIGYGNGKQLIHRLNMFQVDRATFEQAIKQINQEEDH”, the “soluble fraction (log2)” value is -0.539.
As to “HMPQTNIYPNPAFDKLFVSNLENETNFKIMDLFGRTIINSKTKGEISISELKSGIYIIEINNFRQKFVK”, the “soluble fraction (log2)” value was -2.64.
In the case of “HMPQVALAIDEMKRELASPDIVKTLLATTFKGLSEVNMRQAMLDGMIQGHTIADFFKKDVYAIPFGSGYSL”, the “soluble fraction (log2)” value was 0.049.
The value for “HMPRPFPELTTREHDILALIARGWSNGRIADHLSLSGKTVSNYVSNILGKLQVTARAEAAERAREAGMGQ” was -0.379; that for “HMPRRSYLDARKKLLGMLNSPDFNSGDQIPAERELSEVLGISRVTVRKIITELIDEGVLERRGNQGTWLVD” was -1.01.
To “HMPRSREVHVEPGMVLEDVTTGFVGAVIRTEKSAGIYVIELEDRRGRRRSFPLGGGFWLDGRPIIALPPLP” belongs -1.81.
The value for “HMPSLAVYPNPVKDILNIATDKPVHSIRIYNVYGSEVLRAADTNRIDVSHLPAGVYMVSADGKVTRIIK” was -0.858.
Consider “HMPSLGGLLALLKRNRKPDAMEALDRLISKEDRPETAEALENIREKVRNMQMREAEGLLLALMEP”, for which the “soluble fraction (log2)” value is -0.509.
As for “HMPSLILADEPTGNLDSRNSSEVIALLKNASKRYAQTIIMITHNRSIAQSADRVLQVSDGVLTDMG”, the “soluble fraction (log2)” value was found to be 0.345.
The value for “HMPSLNDRPDDVLYLFSYFLQSFSHRQVSLPKILKKALIQHDWWGNIRELHSVALRYYIFGDTLNGAYDSL” was -0.99; that for “HMPSLSREREAAILEMIERRPSTAEDVASGLGLAVNEVIKLLDGTALRGSVETFQSGEEIYYTRKR” was 0.472.
To “HMPSNVKIPDVTGKTVAQARSAIEAAGLKVGKEKDEYSDSAKKDSVIRTNPQAGTQRREGSTVDLIVS” belongs 0.175.
